Assay results reported in US20220135655A1.

Experiments:
Assay in all cases: SPR
Settings in all cases: scFv
[1] = biological target: H5VN04 (influenza A virus H5VN04 (H5N1))
[2] = biological target: H5 (influenza A virus H5VN04 (H5N1))
[3] = biological target: H5 (influenza A virus H5VN04 (H5N1)); remark: listed apart in the source
[4] = biological target: H5 (influenza A virus H5VN04 (H5N1)); remark: listed apart in the source

| Substance | Kd [1] [nM] | Kd [2] [nM] | Kd [3] [nM] | Kd [4] [nM] |
| --- | --- | --- | --- | --- |
| CR6261 wt | 0.34 |  |  |  |
| F10 |  | 1.2 | 270 | 0.1 |
| F10 wt | 0.1 |  |  |  |
